Tests used:
[1] = molecular target: T1, mouse HSP90α (NP-034610) (mouse, UniProt P07901 2-733); experiment: antibody bound to living DC2.4 cells, lysis, Protein G-Sepharose, blot
T1 construct: whole, on cells; also called cell surface HSP90α
Description: (§1) Mammalian HSP90 occurs in two isoforms: HSP90α and β. The following experiment was performed to determine whether not only HSP90α but also HSP90β is recognized by the antibody of the present invention. […] After being thoroughly washed to remove the unreacted antibody, the cells were lysed; the lysate was centrifuged at 10,000×g, and the resulting supernatant was incubated along with Protein G-Sepharose. The bound material was subjected to SDS-PAGE, after which blotting was performed using an anti-HSP90α antibody (SPS-771, Assay designs), an anti-HSP90β antibody (PB-118-P1, Neomarkers), or an antibody that recognizes both HSP90α and β (6B1C4, another antibody obtained in Example 1).

[2] = molecular target: T2, mouse HSP90β (NP-032328) (mouse, UniProt P11499 2-724); experiment: as above
T2 construct: whole, on cells; also called cell surface HSP90β
T2 sequence (P11499 2-724): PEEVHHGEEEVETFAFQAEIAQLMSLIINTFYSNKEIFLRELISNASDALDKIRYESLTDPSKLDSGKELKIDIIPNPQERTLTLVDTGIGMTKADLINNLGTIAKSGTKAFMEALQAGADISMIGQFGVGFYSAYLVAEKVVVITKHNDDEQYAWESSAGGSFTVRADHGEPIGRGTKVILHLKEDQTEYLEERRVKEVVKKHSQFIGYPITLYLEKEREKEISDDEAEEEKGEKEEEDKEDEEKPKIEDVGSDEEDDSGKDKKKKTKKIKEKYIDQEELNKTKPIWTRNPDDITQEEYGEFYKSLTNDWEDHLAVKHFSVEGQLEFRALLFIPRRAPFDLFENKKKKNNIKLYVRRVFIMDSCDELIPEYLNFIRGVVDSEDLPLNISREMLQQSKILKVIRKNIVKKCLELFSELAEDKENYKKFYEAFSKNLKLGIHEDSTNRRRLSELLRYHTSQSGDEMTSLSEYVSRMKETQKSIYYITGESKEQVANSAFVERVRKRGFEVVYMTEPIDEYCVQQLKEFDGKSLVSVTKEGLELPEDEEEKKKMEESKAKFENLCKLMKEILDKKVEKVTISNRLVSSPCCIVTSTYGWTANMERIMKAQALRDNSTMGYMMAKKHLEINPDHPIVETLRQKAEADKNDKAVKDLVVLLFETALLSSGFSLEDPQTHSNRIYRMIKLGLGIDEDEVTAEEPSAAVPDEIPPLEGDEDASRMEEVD
Description: as §1

B1: 6H8D2 anti-HSP90 monoclonal antibody (hybridoma FERM BP-11222) (antibody, V domains shown)
VH: QVQLQQSGPELVKPGASVRISCKASGYTFTSYYIHWVKQRPGQGLEWIGWIYPGNVNTKYNEKFKGKATLTADKSSSTAYMQLSSLTSEDSAVYFCARYGNYPFAYWGQGTLVTVSA
VL: DVVMTQTPLSLPVSLGDQASISCRSSQSLVHSNGNTYLHWYLQKPGQSPKLLIYKVSNRFSGVPDRFSGSGSGTDFTLKISRVEAEDLGVYFCSQSTHVPPTFGGGTKLEIKR
notes: Mouse monoclonal IgG from a hybridoma; Normal mouse IgG2a served as its control; It was biotinylated for FACS; also called 6H8 antibody; 6H8 mAb
binding result [1]: binds
binding result [2]: binds

— patent publication US20110280881A1 (RIKEN, published 2011)
